In this assay the test system is proteins that co-immunoprecipitated with DUX4-CTD constructs expressed in MB135 myoblasts. As to the kind of experiment: LC-MS of proteins co-immunoprecipitated with DUX4-CTD (Table 1) and western validation. It counts as binding, human. The arrangement: key to 4. mL1dL2 + Dox + IFNG / 4. + IFNG mix / 4. longCTD + Dox + IFNG / 3. + IFNg + Dox longCTD / 3. + Dox longCTD / 3. + IFNG longCTD: peptide-spectrum matches (PSMs) per protein. Particulars: for 4. longCTD + Dox + IFNG: LC-MS counts of the listed protein co-immunoprecipitated with DUX4-CTD bait longCTD, experiment 4, Dox + IFNG; for 3. + Dox longCTD / 3. + IFNg + Dox longCTD / 3. + IFNG longCTD: bait longCTD; for 3. + Dox longCTD: experiment 3, Dox only; for 3. + IFNg + Dox longCTD: experiment 3, IFNg + Dox; for SUM of PSMS: sum over all samples; for 3. + IFNG longCTD: experiment 3, IFNG only, no doxycycline (bait at background level). Put shortly: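 FLAG-tagged DUX4-CTD expressed in doxycycline-induced MB135 myoblasts, some also IFNG-treated; nuclear lysates in pH 7.4 NP-40 IP buffer were pre-cleared, then anti-FLAG immunoprecipitated 3 h at 4 °C. For LC-MS, FLAG-peptide elution, in-gel trypsin digest, Orbitrap analysis; proteins with ≥2 PSMs in both experiments categorised and ranked by total PSMs.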

B1: O75083 (protein, UniProt O75083 1-606, looked up)
chain: MPYEIKKVFASLPQVERGVSKIIGGDPKGNNFLYTNGKCVILRNIDNPALADIYTEHAHQVVVAKYAPSGFYIASGDVSGKLRIWDTTQKEHLLKYEYQPFAGKIKDIAWTEDSKRIAVVGEGREKFGAVFLWDSGSSVGEITGHNKVINSVDIKQSRPYRLATGSDDNCAAFFEGPPFKFKFTIGDHSRFVNCVRFSPDGNRFATASADGQIYIYDGKTGEKVCALGGSKAHDGGIYAISWSPDSTHLLSASGDKTSKIWDVSVNSVVSTFPMGSTVLDQQLGCLWQKDHLLSVSLSGYINYLDRNNPSKPLHVIKGHSKSIQCLTVHKNGGKSYIYSGSHDGHINYWDSETGENDSFAGKGHTNQVSRMTVDESGQLISCSMDDTVRYTSLMLRDYSGQGVVKLDVQPKCVAVGPGGYAVVVCIGQIVLLKDQRKCFSIDNPGYEPEVVAVHPGGDTVAIGGVDGNVRLYSILGTTLKDEGKLLEAKGPVTDVAYSHDGAFLAVCDASKVVTVFSVADGYSENNVFYGHHAKIVCLAWSPDNEHFASGGMDMMVYVWTLSDPETRVKIQDAHRLHHVSSLAWLDEHTLVTTSHDASVKEWTITY
modifications: full-length
As to B1, the “4. longCTD + Dox + IFNG” value is on record as 11, the “3. + Dox longCTD” value is listed as 1, the “3. + IFNg + Dox longCTD” value was found to be 2 and the “SUM of PSMS” value stood at 16.

B2: Q13409 (protein, UniProt Q13409 1-638, looked up)
chain: MSDKSELKAELERKKQRLAQIREEKKRKEEERKKKETDQKKEAVAPVQEESDLEKKRREAEALLQSMGLTPESPIVFSEYWVPPPMSPSSKSVSTPSEAGSQDSGDGAVGSRTLHWDTDPSVLQLHSDSDLGRGPIKLGMAKITQVDFPPREIVTYTKETQTPVMAQPKEDEEEDDDVVAPKPPIEPEEEKTLKKDEENDSKAPPHELTEEEKQQILHSEEFLSFFDHSTRIVERALSEQINIFFDYSGRDLEDKEGEIQAGAKLSLNRQFFDERWSKHRVVSCLDWSSQYPELLVASYNNNEDAPHEPDGVALVWNMKYKKTTPEYVFHCQSAVMSATFAKFHPNLVVGGTYSGQIVLWDNRSNKRTPVQRTPLSAAAHTHPVYCVNVVGTQNAHNLISISTDGKICSWSLDMLSHPQDSMELVHKQSKAVAVTSMSFPVGDVNNFVVGSEEGSVYTACRHGSKAGISEMFEGHQGPITGIHCHAAVGAVDFSHLFVTSSFDWTVKLWTTKNNKPLYSFEDNADYVYDVMWSPTHPALFACVDGMGRLDLWNLNNDTEVPTASISVEGNPALNRVRWTHSGREIAVGDSEGQIVIYDVGEQIAVPRNDEWARFGRTLAEINANRADAEEEAATRIPA
modifications: full-length
Regarding B2, the “4. longCTD + Dox + IFNG” value was found to be 4, the “3. + IFNg + Dox longCTD” value turned out to be 1 and the “SUM of PSMS” value stood at 5.

B3: Q6NZI2 (protein, UniProt Q6NZI2 1-390, looked up)
chain: MEDPTLYIVERPLPGYPDAEAPEPSSAGAQAAEEPSGAGSEELIKSDQVNGVLVLSLLDKIIGAVDQIQLTQAQLEERQAEMEGAVQSIQGELSKLGKAHATTSNTVSKLLEKVRKVSVNVKTVRGSLERQAGQIKKLEVNEAELLRRRNFKVMIYQDEVKLPAKLSISKSLKESEALPEKEGEELGEGERPEEDAAALELSSDEAVEVEEVIEESRAERIKRSGLRRVDDFKKAFSKEKMEKTKVRTRENLEKTRLKTKENLEKTRHTLEKRMNKLGTRLVPAERREKLKTSRDKLRKSFTPDHVVYARSKTAVYKVPPFTFHVKKIREGQVEVLKATEMVEVGADDDEGGAERGEAGDLRRGSSPDVHALLEITEESDAVLVDKSDSD
modifications: full-length
Take B3: the “4. longCTD + Dox + IFNG” value worked out at 16, the “3. + IFNg + Dox longCTD” value turned out to be 3 and the “SUM of PSMS” value worked out at 42.

B4: P02545 (protein, UniProt P02545 1-664, looked up)
chain: METPSQRRATRSGAQASSTPLSPTRITRLQEKEDLQELNDRLAVYIDRVRSLETENAGLRLRITESEEVVSREVSGIKAAYEAELGDARKTLDSVAKERARLQLELSKVREEFKELKARNTKKEGDLIAAQARLKDLEALLNSKEAALSTALSEKRTLEGELHDLRGQVAKLEAALGEAKKQLQDEMLRRVDAENRLQTMKEELDFQKNIYSEELRETKRRHETRLVEIDNGKQREFESRLADALQELRAQHEDQVEQYKKELEKTYSAKLDNARQSAERNSNLVGAAHEELQQSRIRIDSLSAQLSQLQKQLAAKEAKLRDLEDSLARERDTSRRLLAEKEREMAEMRARMQQQLDEYQELLDIKLALDMEIHAYRKLLEGEEERLRLSPSPTSQRSRGRASSHSSQTQGGGSVTKKRKLESTESRSSFSQHARTSGRVAVEEVDEEGKFVRLRNKSNEDQSMGNWQIKRQNGDDPLLTYRFPPKFTLKAGQVVTIWAAGAGATHSPPTDLVWKAQNTWGCGNSLRTALINSTGEEVAMRKLVRSVTVVEDDEDEDGDDLLHHHHGSHCSSSGDPAEYNLRSRTVLCGTCGQPADKASASGSGAQVGGPISSGSSASSVTVTRSYRSVGGSGGGSFGDNLVTRSYLLGNSSPRTQSPQNCSIM
modifications: full-length
With B4, the “4. longCTD + Dox + IFNG” value came to 6, the “3. + IFNg + Dox longCTD” value is given as 3 and the “SUM of PSMS” value is recorded as 21.

B5: Q13885 (protein, UniProt Q13885 1-445, looked up)
chain: MREIVHIQAGQCGNQIGAKFWEVISDEHGIDPTGSYHGDSDLQLERINVYYNEAAGNKYVPRAILVDLEPGTMDSVRSGPFGQIFRPDNFVFGQSGAGNNWAKGHYTEGAELVDSVLDVVRKESESCDCLQGFQLTHSLGGGTGSGMGTLLISKIREEYPDRIMNTFSVMPSPKVSDTVVEPYNATLSVHQLVENTDETYSIDNEALYDICFRTLKLTTPTYGDLNHLVSATMSGVTTCLRFPGQLNADLRKLAVNMVPFPRLHFFMPGFAPLTSRGSQQYRALTVPELTQQMFDSKNMMAACDPRHGRYLTVAAIFRGRMSMKEVDEQMLNVQNKNSSYFVEWIPNNVKTAVCDIPPRGLKMSATFIGNSTAIQELFKRISEQFTAMFRRKAFLHWYTGEGMDEMEFTEAESNMNDLVSEYQQYQDATADEQGEFEEEEGEDEA
modifications: full-length
For B5, the “4. longCTD + Dox + IFNG” value is recorded as 99, the “3. + Dox longCTD” value came out at 35, the “3. + IFNG longCTD” value is recorded as 13 and the “3. + IFNg + Dox longCTD” value was 61. Moreover, the “SUM of PSMS” value was 208.

B6: P07437 (protein, UniProt P07437 1-444, looked up)
chain: MREIVHIQAGQCGNQIGAKFWEVISDEHGIDPTGTYHGDSDLQLDRISVYYNEATGGKYVPRAILVDLEPGTMDSVRSGPFGQIFRPDNFVFGQSGAGNNWAKGHYTEGAELVDSVLDVVRKEAESCDCLQGFQLTHSLGGGTGSGMGTLLISKIREEYPDRIMNTFSVVPSPKVSDTVVEPYNATLSVHQLVENTDETYCIDNEALYDICFRTLKLTTPTYGDLNHLVSATMSGVTTCLRFPGQLNADLRKLAVNMVPFPRLHFFMPGFAPLTSRGSQQYRALTVPELTQQVFDAKNMMAACDPRHGRYLTVAAVFRGRMSMKEVDEQMLNVQNKNSSYFVEWIPNNVKTAVCDIPPRGLKMAVTFIGNSTAIQELFKRISEQFTAMFRRKAFLHWYTGEGMDEMEFTEAESNMNDLVSEYQQYQDATAEEEEDFGEEAEEEA
modifications: full-length
Regarding B6, the “4. longCTD + Dox + IFNG” value turned out to be 110, the “3. + Dox longCTD” value came out at 41, the “3. + IFNG longCTD” value is 14 and the “3. + IFNg + Dox longCTD” value is given as 75. Also, the “SUM of PSMS” value was determined as 315.

B7: Q14247 (protein, UniProt Q14247 1-550, looked up)
chain: MWKASAGHAVSIAQDDAGADDWETDPDFVNDVSEKEQRWGAKTVQGSGHQEHINIHKLRENVFQEHQTLKEKELETGPKASHGYGGKFGVEQDRMDKSAVGHEYQSKLSKHCSQVDSVRGFGGKFGVQMDRVDQSAVGFEYQGKTEKHASQKDYSSGFGGKYGVQADRVDKSAVGFDYQGKTEKHESQRDYSKGFGGKYGIDKDKVDKSAVGFEYQGKTEKHESQKDYVKGFGGKFGVQTDRQDKCALGWDHQEKLQLHESQKDYKTGFGGKFGVQSERQDSAAVGFDYKEKLAKHESQQDYSKGFGGKYGVQKDRMDKNASTFEDVTQVSSAYQKTVPVEAVTSKTSNIRANFENLAKEKEQEDRRKAEAERAQRMAKERQEQEEARRKLEEQARAKTQTPPVSPAPQPTEERLPSSPVYEDAASFKAELSYRGPVSGTEPEPVYSMEAADYREASSQQGLAYATEAVYESAEAPGHYPAEDSTYDEYENDLGITAVALYDYQAAGDDEISFDPDDIITNIEMIDDGWWRGVCKGRYGLFPANYVELRQ
modifications: full-length
Regarding B7, the “4. longCTD + Dox + IFNG” value was 5, the “3. + IFNg + Dox longCTD” value amounted to 1 and the “SUM of PSMS” value was 6.

B8: Q16643 (protein, UniProt Q16643 1-649, looked up)
chain: MAGVSFSGHRLELLAAYEEVIREESAADWALYTYEDGSDDLKLAASGEGGLQELSGHFENQKVMYGFCSVKDSQAALPKYVLINWVGEDVPDARKCACASHVAKVAEFFQGVDVIVNASSVEDIDAGAIGQRLSNGLARLSSPVLHRLRLREDENAEPVGTTYQKTDAAVEMKRINREQFWEQAKKEEELRKEEERKKALDERLRFEQERMEQERQEQEERERRYREREQQIEEHRRKQQTLEAEEAKRRLKEQSIFGDHRDEEEETHMKKSESEVEEAAAIIAQRPDNPREFFKQQERVASASAGSCDVPSPFNHRPGSHLDSHRRMAPTPIPTRSPSDSSTASTPVAEQIERALDEVTSSQPPPLPPPPPPAQETQEPSPILDSEETRAAAPQAWAGPMEEPPQAQAPPRGPGSPAEDLMFMESAEQAVLAAPVEPATADATEIHDAADTIETDTATADTTVANNVPPAATSLIDLWPGNGEGASTLQGEPRAPTPPSGTEVTLAEVPLLDEVAPEPLLPAGEGCATLLNFDELPEPPATFCDPEEVEGESLAAPQTPTLPSALEELEQEQEPEPHLLTNGETTQKEGTQASEGYFSQSQEEEFAQSEELCAKAPPPVFYNKPPEIDITCWDADPVPEEEEGFEGGD
modifications: full-length
Regarding B8, the “4. longCTD + Dox + IFNG” value amounted to 33, the “3. + Dox longCTD” value turned out to be 3, the “3. + IFNg + Dox longCTD” value was 13 and the “SUM of PSMS” value is recorded as 51.

The values are drawn from patent US20250339531A1, “DUX4 POLYPEPTIDES AND NUCLEIC ACIDS FOR TREATING INFLAMMATORY AND AUTOIMMUNE CONDITIONS” (Fred Hutchinson Cancer Center, priority 2021, published 2025).
